The text below walks through data of PMC4157451.

By stoichiometry N is commonly meant the number of molecules, sites or subunits per partner or assembly.

This experiment concerns the target T1, PvuRts1I, Q52612.
T1 chain: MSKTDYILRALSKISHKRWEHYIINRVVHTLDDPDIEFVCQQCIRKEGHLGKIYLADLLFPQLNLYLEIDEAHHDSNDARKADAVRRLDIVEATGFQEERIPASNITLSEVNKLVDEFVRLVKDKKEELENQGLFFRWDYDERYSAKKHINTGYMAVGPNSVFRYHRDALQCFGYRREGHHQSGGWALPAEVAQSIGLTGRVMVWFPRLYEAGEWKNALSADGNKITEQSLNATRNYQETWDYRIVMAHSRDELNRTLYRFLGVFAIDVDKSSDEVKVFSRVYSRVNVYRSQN
Kind of experiment: SEC; size-exclusion chromatography of purified PvuRts1I; single peak, apparent molecular weight 89 kDa against a theoretical 34 kDa. Conditions: remark: other sources report otherwise. Background: In gel filtration, larger molecules generally elute earlier.

B1: PvuRts1I, Q52612 1-293 (enzyme)
chain: T1 chain
With B1, the stoichiometry N came to 2.
